Laboratory results: patent US5710126A, “T cell epitopes of ryegrass pollen allergen” (ImmuLogic Pharmaceutical Corporation, priority 1995, dated 1998)

B1: rLol p V: bacterially expressed recombinant Lol p V encoded by clone 12R, with His6 sequence, purified on Ni chelating column (protein)
chain: ADAGYTPAAAATPATPAATPAAAGGKATTDEQKLLEDVNAGFKAAVAAAANAPPADKFKIFEAAFSESSKGLLATSAAKAPGLIPKLDTAYDVAYKAAEGATPEAKYDAFVTALTEALRVIAGALEVHAVKPATEEVPAAKIPTGELQIVDKIDAAFKIAATAANAAPTNDKFTVFESAFNKALNECTGGAYETYKFIPSLEAAVKQAYAATVAAAPEVKYAVFEAALTKAITAMTQAQKAGKPAAAAATGAATVATGAATAAAGAATAAAGGYKA
B2: Lol p V: major Lolium perenne L. ryegrass pollen allergen, Group V allergen (protein)
chain: B1 chain
B3: purified native Lol p V: Lol p V allergen affinity purified from ryegrass pollen extract on a mAb 1B9 column (protein)
chain: B1 chain
modifications: The 5 proline residues at the N-terminus were found to be all hydroxyprolines

Assays:
[1] = system: T cell lines from grass-allergic patients primed in vitro with affinity purified Lol p V; experiment: T cell proliferation (tritiated thymidine uptake) of Lol p V-primed T cell lines restimulated with peptides or proteins; type: cell-based, human; settings: one allergic patient; results not shown; 2-50 μg/ml antigen
From the text: As discussed in Example 2, human T cell stimulating activity can be tested by culturing T cells obtained from an individual sensitive to Lol p V allergen, (i.e., an individual who has an IgE mediated immune response to Lol p V allergen) with a peptide derived from the allergen and determining whether proliferation of T cells occurs in response to the peptide as measured, e.g., by cellular uptake of tritiated thymidine. Stimulation indices for responses by T cells to peptides can be calculated as the maximum CPM in response to a peptide divided by the control CPM. A stimulation index (S.I.) equal to or greater than two times the background level is considered "positive". […]
In addition, preferred peptides have a positivity index (P.I.) of at least about 60, more preferably about 100, more preferably at least about 200 and most preferably at least about 300. The positivity index for a peptide is determined by multiplying the mean T cell stimulation index by the percent of individuals, in a population of individuals sensitive to ryegrass pollen (e.g., preferably a population of at least 15 individuals,more preferably a population of at least 30 individuals or more), who have a T cell stimulation index to such peptide of at least 2.0. […]
This amount of priming antigen was determined to be optimal for the activation of T cells from most grass-allergic patients. […]

human IgE = experiment: Direct ELISA of human IgE binding to coated antigen
Experimental: (§1) To examine the importance of Lol p V, both direct and competition ELISA assays were performed. In the direct ELISA, 100 μl of 10 μg/ml of antigen in Phosphate Buffered Saline, pH 7.4 (PBS) was used to coat Immulon II (Dynatech, Chantilly, Va.) 96 well plates for 4 hours at room temperature (RT) or overnight (O/N) at 4° C. In between each step the plates were washed 3× with PBS-T. The excess coating antigen(s) was removed and the wells blocked with 300 μl/well 0.5% gelatin+1 mg/ml PVP in PBS for 1 hour at RT. Serially diluted patient plasma or the diluent PBS+0.05% Tween^-20 was incubated in at 100 μl/well in duplicate wells overnight at 4° C. […] Plates were read on a MR7000 plate reader (Dynatech, Chantilly, Va.) with a 450 nm filter. The absorbance levels of duplicate wells were averaged. The results were graphed as absorbance vs. dilution. […] The results are plotted as the absorbance vs. the log of the concentration of competing antigen.
For the direct ELISA, wells were coated with either soluble pollen extract (SPE) of ryegrass pollen or rLol p V (purified native Lol p V may have a small amount of Lol p I; use of recombinant material assures that the IgE binding is only to Lol p V ) and human IgE antibody binding to these antigens was analyzed. […]

[2] = system: human basophil mediator release; experiment: Histamine release assay on whole blood of a ryegrass allergic individual; type: cell-based; settings: one ryegrass allergic individual; 37° C., 30 minutes; FIG. 12
Experimental: A histamine release assay was performed on one ryegrass allergic individual, using Lol p SPE and rLol p V as the added antigens. This assay is a measure of IgE reactivity through human basophil mediator release, and it is based on the detection of an acylated derivative of histamine using a specific monoclonal antibody (Morel, A. M. and Delaage, M. A.; 1988, J. Allergy Clin. Immunol. 82:646-654). The reagents for this radioimmunoassay are sold as a kit by Amac Inc. (Westbrook, Me.). Whole heparinized blood drawn from a grass allergic individual and then 200 μl aliquots were mixed with an equal amount of the grass antigens SPE and rLol p V at various concentrations or the diluent, PACM buffer (25 mM PIPES, 100 mM NaCl, 5 mM KCL, 4 mM CaCl2, 1 mM MgCl2, 0.003% HSA, pH7.3) in 1.5 ml polypropylene. The release reactions were carried out at 37° C. for 30 minutes. After this incubation, the samples were centrifuged at 1500 RPM for 3 minutes and the supernatants removed. For the total histamine release, 0.1 ml of blood was added to 0.9 ml of PACM buffer, vortexed, and then boiled for 3 minutes. The samples were spun at 13000 RPM and the supernatant removed for analysis. Duplicate samples were used to measure total release. All of the supernatants are diluted 1:4 in acylation buffer and the remainder of the assay is performed according to the manufacturer's instructions.

[3] = system: human IgE binding to ryegrass pollen SPE; experiment: Competition ELISA for IgE binding to ryegrass pollen SPE; settings: IgE source PHP-A or individual patient plasma; FIGS. 10 and 11
Experimental: as §1
In the competition assay, ELISA wells were coated with ryegrass pollen SPE and then allergic patient IgE binding was measured in the presence of competing ryegrass pollen SPE, purified native Lol p V, or rLol p V. The source of allergic IgE in this assay was PHP-A (FIG. 10) or individual patient plasma (FIG. 11). […]

specific IgE antibody = settings: immunoblotting; Lol p V isoforms; WO 93/04174; cited from earlier work

Row | Molecule | T cell proliferative response of one patient [1] | IgE binding in direct ELISA (human IgE; IgE source PHP-A, PHP-B or four individual patients, FIGS. 6-9) | IgE binding in direct ELISA to Lol p V peptides and protein (human IgE; IgE source PHP-B, preliminary assay, FIGS. 13a and 13b) | histamine release [2] | competition for IgE binding to ryegrass pollen SPE [3] | ryegrass pollen sensitive patients possessing specific IgE antibody that bound (specific IgE antibody) [%]
1 | B1 | responds well | high IgE binding | very high IgE binding | strong histamine release over a wide concentration range |  | 
2 | B2 |  |  |  |  | a significant portion of IgE against Lol p SPE is specific for Lol p V | 80
3 | B3 | responds well |  |  |  |  | 
